# Like-named read-outs stand apart in the source and are kept apart here.
# How the values were obtained:
# [1] = target: Du172.17 gp140.664.R4 Env trimer (HIV-1 Du172.17 (clade C)); experiment: crystal structure
substance,measurement,setting,value
BG505.T332N Env (pseudovirus glycan hole mutant P291T): P291T (glycan site added at N289),other,N-glycosylation at N289,decreases
BG505.T332N Env (pseudovirus glycan hole mutant S241N): S241N (glycan site added),other,N-glycosylation at N241,decreases
BG505.T332N Env (pseudovirus glycan hole mutant T465N): T465N (glycan site added),other,N-glycosylation at N465,decreases
Du172.17 gp140.664.R4 Env trimer (complex),stoichiometry N,[1],3
